{"source": "paper PMC7305236", "about": "(Nature Communications, 2020)", "binders": {"B1": {"name": "LIH383 (designed binder)", "peptide": "FGGFMRRK-NH2"}, "B2": {"name": "Adrenorphin (peptide)", "peptide": "YGGFMRRV-NH2"}, "B3": {"name": "LIH383 (peptide)", "peptide": "FGGFMRRK-NH2"}, "B4": {"name": "Nociceptin 1-13-NH2 (peptide)", "peptide": "FGGFTGARKSARK-NH2"}, "B5": {"name": "BAM22 (peptide)", "peptide": "YGGFMRRVGRPEWWMDYQKRYG"}, "B6": {"name": "[Phe1Ψ(CH2-NH)-gly2]nociceptin-(1-13)-NH2 (peptide)", "peptide": "FGGFTGARKSARK-NH2", "modifications": "also: ψ(CH2-NH) bond between Phe1 and Gly2"}, "B7": {"name": "Dynorphin B (peptide)", "peptide": "YGGFLRRQFKVVT"}, "B8": {"name": "Nociceptin (peptide)", "peptide": "FGGFTGARKSARKLANQ"}, "B9": {"name": "Dynorphin A (peptide)", "peptide": "YGGFLRRIRPKLKWDNQ"}, "B10": {"name": "LIH383-Cy5 (peptide)", "peptide": "FGGFMRRK(Cy5)"}, "B11": {"name": "Endomorphin-1 (peptide)", "chain": "YPWF-NH2"}, "B12": {"name": "Dynorphin A 2-13-NH2 (peptide)", "peptide": "GGFLRRIRPKLK-NH2"}, "B13": {"name": "Dynorphin A 2-17 (peptide)", "peptide": "GGFLRRIRPKLKWDNQ"}}, "note": "No end group written: not given here."}
{"target": "ACKR3 C-terminally tagged with SmBiT (human, UniProt P25106 1-362)", "sequence (P25106 whole entry)": "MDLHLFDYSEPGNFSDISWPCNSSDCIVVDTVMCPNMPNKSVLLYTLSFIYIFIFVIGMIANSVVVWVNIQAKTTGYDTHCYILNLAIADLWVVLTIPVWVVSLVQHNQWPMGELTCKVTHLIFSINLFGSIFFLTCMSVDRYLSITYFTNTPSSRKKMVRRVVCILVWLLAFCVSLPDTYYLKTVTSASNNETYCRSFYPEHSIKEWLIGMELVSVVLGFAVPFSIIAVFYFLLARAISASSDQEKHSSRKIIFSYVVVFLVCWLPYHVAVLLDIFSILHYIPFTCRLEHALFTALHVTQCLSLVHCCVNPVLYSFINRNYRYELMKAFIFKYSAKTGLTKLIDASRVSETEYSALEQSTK", "assay": "cell-based or functional assay", "units": {"β-arrestin-1 recruitment (NanoBiT, U87 cells): EC50": "nM"}}
{"binder": "B1", "β-arrestin-1 recruitment (NanoBiT, U87 cells): EC50": 0.61}
{"target": "T1, atypical chemokine receptor ACKR3 (formerly CXCR7) (human, UniProt P25106 1-362)", "T1 sequence (P25106 whole entry)": "as above", "assay": "cell-based or functional assay", "units": {"Supplementary Table 4: EC50 of β-arrestin-1 recruitment to ACKR3, U87 cells": "nM"}}
{"binder": "B2", "Supplementary Table 4: EC50 of β-arrestin-1 recruitment to ACKR3, U87 cells": 109}
{"target": "mu opioid receptor (MOR) (human, UniProt P35372 1-400)", "sequence (P35372 whole entry)": "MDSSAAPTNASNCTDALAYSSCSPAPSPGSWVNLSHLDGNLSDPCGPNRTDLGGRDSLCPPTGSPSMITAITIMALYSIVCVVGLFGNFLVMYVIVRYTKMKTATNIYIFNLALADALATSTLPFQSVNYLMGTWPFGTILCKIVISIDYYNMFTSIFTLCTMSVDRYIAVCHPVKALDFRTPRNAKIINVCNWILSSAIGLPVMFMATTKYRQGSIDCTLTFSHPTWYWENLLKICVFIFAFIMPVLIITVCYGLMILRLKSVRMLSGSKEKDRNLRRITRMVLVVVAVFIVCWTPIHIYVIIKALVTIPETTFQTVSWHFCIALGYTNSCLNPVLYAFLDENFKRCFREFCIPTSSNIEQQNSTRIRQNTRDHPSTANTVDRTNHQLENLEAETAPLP", "assay": "cell-based or functional assay", "units": {"Supplementary Table 4: EC50 of β-arrestin-1 recruitment to MOR, U87 cells": "nM"}}
{"binder": "B2", "Supplementary Table 4: EC50 of β-arrestin-1 recruitment to MOR, U87 cells": 101}
{"target": "delta opioid receptor (DOR) (human, UniProt P41143 1-372)", "sequence (P41143 whole entry, stated change not applied)": "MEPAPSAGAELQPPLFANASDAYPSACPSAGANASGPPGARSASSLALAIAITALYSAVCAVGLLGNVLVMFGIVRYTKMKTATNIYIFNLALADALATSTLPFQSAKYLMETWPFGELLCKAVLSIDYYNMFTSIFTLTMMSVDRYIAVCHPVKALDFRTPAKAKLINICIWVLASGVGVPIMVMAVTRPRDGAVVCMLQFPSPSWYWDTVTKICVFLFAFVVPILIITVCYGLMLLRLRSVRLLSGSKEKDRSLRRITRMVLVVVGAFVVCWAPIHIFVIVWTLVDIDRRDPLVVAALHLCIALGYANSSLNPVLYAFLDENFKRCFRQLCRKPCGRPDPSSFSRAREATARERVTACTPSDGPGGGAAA", "assay": "cell-based or functional assay", "units": {"Supplementary Table 4: EC50 of β-arrestin-1 recruitment to DOR, U87 cells": "nM"}}
{"binder": "B2", "Supplementary Table 4: EC50 of β-arrestin-1 recruitment to DOR, U87 cells": 323}
{"target": "kappa opioid receptor (KOR) (human, UniProt P41145 1-380)", "sequence (P41145 whole entry)": "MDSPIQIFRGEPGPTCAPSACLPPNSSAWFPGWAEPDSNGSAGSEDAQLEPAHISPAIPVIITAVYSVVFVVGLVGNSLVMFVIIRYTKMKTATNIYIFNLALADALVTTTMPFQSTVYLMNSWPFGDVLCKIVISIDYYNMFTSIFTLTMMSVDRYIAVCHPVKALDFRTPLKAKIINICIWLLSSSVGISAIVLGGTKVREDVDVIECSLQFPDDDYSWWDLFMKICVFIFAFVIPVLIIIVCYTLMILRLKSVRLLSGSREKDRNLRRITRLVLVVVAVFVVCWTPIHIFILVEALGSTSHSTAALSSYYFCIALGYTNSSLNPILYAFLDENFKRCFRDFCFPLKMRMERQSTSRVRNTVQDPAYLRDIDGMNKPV", "assay": "cell-based or functional assay", "units": {"Supplementary Table 4: EC50 of β-arrestin-1 recruitment to KOR, U87 cells": "nM"}}
{"binder": "B2", "Supplementary Table 4: EC50 of β-arrestin-1 recruitment to KOR, U87 cells": 65.6}
{"target": "mouse ACKR3 (mouse, UniProt P56485 1-362)", "sequence (P56485 whole entry)": "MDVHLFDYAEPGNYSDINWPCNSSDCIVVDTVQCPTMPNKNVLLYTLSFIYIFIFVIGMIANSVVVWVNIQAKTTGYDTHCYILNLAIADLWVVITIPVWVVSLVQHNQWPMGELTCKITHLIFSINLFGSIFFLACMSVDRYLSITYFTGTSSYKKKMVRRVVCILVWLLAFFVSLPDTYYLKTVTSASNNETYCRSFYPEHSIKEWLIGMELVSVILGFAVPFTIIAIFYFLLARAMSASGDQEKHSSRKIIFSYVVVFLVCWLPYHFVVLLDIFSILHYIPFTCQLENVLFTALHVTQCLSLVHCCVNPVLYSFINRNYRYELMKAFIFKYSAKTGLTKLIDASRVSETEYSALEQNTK", "assay": "cell-based or functional assay", "units": {"Supplementary Table 6: EC50 of β-arrestin-1 recruitment to mACKR3, U87 cells": "nM"}}
{"binder": "B3", "Supplementary Table 6: EC50 of β-arrestin-1 recruitment to mACKR3, U87 cells": 2.31}
{"target": "T1, atypical chemokine receptor ACKR3 …", "assay": "cell-based or functional assay", "remark": "another data set of the same source", "units": {"Supplementary Table 9: EC50 of β-arrestin-1 recruitment to ACKR3, CHO cells": "nM", "Supplementary Table 9: EC50 of β-arrestin-1 recruitment to ACKR3, HEK cells": "nM", "Supplementary Table 9: EC50 of β-arrestin-2 recruitment to ACKR3, U87 cells": "nM"}}
{"binder": "B4", "Supplementary Table 9: EC50 of β-arrestin-1 recruitment to ACKR3, CHO cells": "~10000", "Supplementary Table 9: EC50 of β-arrestin-1 recruitment to ACKR3, HEK cells": "~10000", "Supplementary Table 9: EC50 of β-arrestin-2 recruitment to ACKR3, U87 cells": "~10000"}
{"binder": "B2", "Supplementary Table 9: EC50 of β-arrestin-1 recruitment to ACKR3, CHO cells": 22.5, "Supplementary Table 9: EC50 of β-arrestin-1 recruitment to ACKR3, HEK cells": 72.6, "Supplementary Table 9: EC50 of β-arrestin-2 recruitment to ACKR3, U87 cells": 81.5}
{"binder": "B5", "Supplementary Table 9: EC50 of β-arrestin-1 recruitment to ACKR3, CHO cells": 12.5, "Supplementary Table 9: EC50 of β-arrestin-1 recruitment to ACKR3, HEK cells": 23.2, "Supplementary Table 9: EC50 of β-arrestin-2 recruitment to ACKR3, U87 cells": 22.9}
{"binder": "B6", "Supplementary Table 9: EC50 of β-arrestin-1 recruitment to ACKR3, CHO cells": "~5000", "Supplementary Table 9: EC50 of β-arrestin-1 recruitment to ACKR3, HEK cells": 3760, "Supplementary Table 9: EC50 of β-arrestin-2 recruitment to ACKR3, U87 cells": 4340}
{"binder": "B7", "Supplementary Table 9: EC50 of β-arrestin-1 recruitment to ACKR3, CHO cells": "~1000", "Supplementary Table 9: EC50 of β-arrestin-1 recruitment to ACKR3, HEK cells": 673, "Supplementary Table 9: EC50 of β-arrestin-2 recruitment to ACKR3, U87 cells": 908}
{"binder": "B8", "Supplementary Table 9: EC50 of β-arrestin-1 recruitment to ACKR3, CHO cells": "~10000", "Supplementary Table 9: EC50 of β-arrestin-2 recruitment to ACKR3, U87 cells": "> 10000"}
{"binder": "B9", "Supplementary Table 9: EC50 of β-arrestin-1 recruitment to ACKR3, HEK cells": 110, "Supplementary Table 9: EC50 of β-arrestin-2 recruitment to ACKR3, U87 cells": 97.6}
{"target": "T1, atypical chemokine receptor ACKR3 …", "assay": "flow cytometry on cells", "units": {"EC50": "nM"}}
{"binder": "B10", "EC50": 6.65}
{"target": "T1, atypical chemokine receptor ACKR3 …", "assay": "flow cytometry on cells", "remark": "another data set of the same source", "units": {"IC50": "nM"}}
{"binder": "B4", "IC50": "> 10000"}
{"binder": "B2", "IC50": 41.2}
{"binder": "B5", "IC50": 31.3}
{"binder": "B6", "IC50": "> 10000"}
{"binder": "B11", "IC50": "> 10000"}
{"binder": "B7", "IC50": "~1000"}
{"binder": "B3", "IC50": 4}
{"binder": "B12", "IC50": "> 10000"}
{"binder": "B13", "IC50": "~10000"}
{"binder": "B9", "IC50": 85.3}
